Key:
lung cancer cells A549 = experiment: CCK8 cell viability detection, A549; assay type: cell-based, human; details: CCK8, 24 h treatment; read-out: IC50, inhibition of A549 cells
Description: CCK8 cell viability detection: cell suspension was seeded in 96-well plates at a concentration of 5×10^4 cells/ml (100 μL/well). The plates were placed in the incubator for pre-culture (at 37° C., 5% CO2), and control and protein agents were added to each well 24 h after seeding. The plates were then placed in the incubator for 24 h, followed by addition of 10 μL CCK8 solution into each well and incubation of the plates in the incubator for 0.5-2 h before the absorbance measurement at 450 nm using a microplate reader.
Analysis of effect of GhJAZ1 protein on the cell cycle and apoptosis of tumor cells

c-Myc-150aa = target: T1, c-Myc-150aa (Homo sapiens, UniProt P01106); experiment: Yeast two hybrid and LUC with c-Myc truncated to first 150 amino acids; assay type: binding
T1 construct: expressed in transfected cells
T1 sequence (P01106 1-150): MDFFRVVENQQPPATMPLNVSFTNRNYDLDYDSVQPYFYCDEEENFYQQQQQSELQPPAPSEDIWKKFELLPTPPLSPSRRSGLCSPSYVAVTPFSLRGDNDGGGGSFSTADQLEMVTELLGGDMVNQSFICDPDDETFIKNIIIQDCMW
From the text: […]

c-Myc = c-Myc (Homo sapiens, UniProt P01106); experiment: GST Pull down experiment with c-Myc; assay type: binding; parameters: with the full length of c-Myc and NMYC, respectively; expressed in transfected cells; host or cells: yeast Y2HGold; details: GST-c-Myc and His-GhJAZ1 fusion proteins
Chain of c-Myc (P01106 whole entry, the tested form may be a part): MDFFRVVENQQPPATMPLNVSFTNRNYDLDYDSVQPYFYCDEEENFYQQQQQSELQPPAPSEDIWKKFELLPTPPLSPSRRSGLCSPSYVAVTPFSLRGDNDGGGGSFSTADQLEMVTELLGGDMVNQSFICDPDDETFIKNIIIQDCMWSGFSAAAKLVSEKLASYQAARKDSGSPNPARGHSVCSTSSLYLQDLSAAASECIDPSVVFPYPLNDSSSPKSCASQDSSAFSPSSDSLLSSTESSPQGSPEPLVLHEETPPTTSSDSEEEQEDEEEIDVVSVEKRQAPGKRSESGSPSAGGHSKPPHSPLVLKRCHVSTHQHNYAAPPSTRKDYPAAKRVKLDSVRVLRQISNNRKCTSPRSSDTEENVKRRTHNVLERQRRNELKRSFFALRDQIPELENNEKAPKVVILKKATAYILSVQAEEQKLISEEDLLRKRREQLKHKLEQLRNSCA
From the text: Simultaneously, the interaction was validated by GST Pull down experiment. Firstly, pET-30a-GhJAZ1 (the DNA sequence set forth in SEQ ID No. 39 was inserted into pET-30a (+) vector (YouBio, Cat. No.: VT1212) between NdeI and HindIII) and pGEX-4T-1-c-Myc vectors (the CDS sequence of c-Myc (NCBI accession number: NM_002467.6) was inserted into pGEX-4T-1 vector (YouBio, Cat. No.: VT1253) between BamHI and EcoRI) was constructed and transformed into Escherichia coli BL21, which was placed on ice for 30 min, followed by heat shock at 42° C. for 60 s, and then placed on ice for 2 min, and then LB medium was added for cultivation at 37° C. and 200 rpm for 1 h, which was plated onto LB plates containing corresponding antibiotics for cultivation at 37° C. After colonies grown out, monoclonal clones were picked and shaking for incubation and expanded until the medium began to turn slightly white, and then different concentrations of IPTG were added for induction and cultured overnight under different temperatures setting. Subsequently, centrifugation at 5,000 rpm, 4° C. was carried out for 10 min, with addition of an equal volume of PBS (supplemented with PMSF and DTT) for resuspending. […] The supernatant was transferred into a protein purification column, and washed and eluted following incubation, and then proteins were detected and collected dropwise using protein pre-staining solution. […]

B1: GhJAZ1: cotton JAZ1 protein, gene number Gh_A05G0260, sequence SEQ ID No. 4; prokaryotically expressed with His tag, about 30 KD (protein)
chain: MSSCSESTAMKPARSPEKPSFAQTCNLLSQYLKEKGSFGDLSLGMTCNVEANGTPVVPPPTMNLFPLNDKSDDVCGRNGGNPKNLTSMDLFPQQAGLASKDDSPNKLEPQTAPMTIFYGGQVIVFNDFPANKAKEIMLLASNSSSQSNNSFNPIPFTSSIARSPIESSIGVPPTSKPVHPAQRAVPGDLPIARRASLHRFLEKRKDRITAKAPYQINNSAAAPSLSGDNKSWLGLAAQSP
modifications: His tag
notes: prokaryotically expressed with His tag, about 30 KD
For B1, the IC50 (lung cancer cells A549) was 697 nM, the “interaction with first 150 amino acids truncated c-Myc” value (c-Myc-150aa) was “strong interactions” and the “interaction with c-Myc” value (c-Myc) was “interacted”.
